From patent US20080160018A1

What was measured:
[1] = target: human IL-2 receptor (p55 Tac protein) on HUT-102 cells (human) (UniProt P01589); test: competition with radioiodinated mouse anti-Tac on HUT-102 cells
[2] = target: gH glycoprotein of cytomegalovirus on CMV-infected HEL cells (cytomegalovirus (CMV)) (UniProt P12824); test: immunostaining of CMV-infected HEL cells, 2-fold dilutions, HRP secondary
[3] = target: human IL-2 receptor (p55 Tac protein) on HUT-102 cells (human) (UniProt P01589); test: cell-based or functional assay

human IL-2 receptor (p55 Tac protein) on HUT-102 cells (human), sequence (P01589 22-272): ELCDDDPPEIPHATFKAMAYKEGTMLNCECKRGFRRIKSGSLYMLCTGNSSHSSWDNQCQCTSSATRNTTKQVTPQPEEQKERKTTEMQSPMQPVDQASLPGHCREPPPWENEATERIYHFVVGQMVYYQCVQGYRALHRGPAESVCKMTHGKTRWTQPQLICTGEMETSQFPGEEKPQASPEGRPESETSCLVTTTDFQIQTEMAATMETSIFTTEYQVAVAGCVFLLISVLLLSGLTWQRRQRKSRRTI

B1: CDR-only humanized anti-Tac antibody (antibody, V domains shown)
VH: QVQLVQSGAEVKKPGSSVKVSCKASGGTFSSYRMHWVRQAPGQGLEWMGYINPSTGYTEYNQKFKDRVTITADESTNTAYMELSSLRSEDTAFYFCAGGGGVFDYEYNGGLVTVSS
VL: DIQMTQSPSTLSASVGDRVTITCSASSSISYMHWYQQKPGKAPKLLMYTTSNLASGVPSRFIGSGSGTEFTLTISSLQPDDFATYYCHQRSTYPLTFGQGTKVEVK
Q: For B1, which fold reduction of binding affinity compared to the PDL humanized anti-Tac antibody [1] is on record?
A: > 100 fold

B2: mouse CMV5 antibody (antibody, V domains shown)
VH: EVQLQQSGPELVKPGASMKISCKASVYSFTGYTMNWVKQSHGQNLEWIGLINPYNGGTSYNQKFKGKATLTVDKSSNTAYMELLSLTSADSAVYYCTRRGFRDYSMDYWGQGTSVTVSS
VL: DIVLTQSPATLSVTPGDSVSLSCRASQSISNNLHWYQQKSHESPRLLIKYASQSISGIPSRFSGSGSGTDFTLSVNGVETEDFGMYFCQQSNSWPHTFGGGTKLEIK
Q: Which least amount of antibody that produced a detectable precipitate [2] does the source give for B2 here?
A: 63 ng/mL

B3: mouse anti-Tac antibody (antibody, V domains shown)
VH: QVQLQQSGAELAKPGASVKMSCKASGYTFTSYRMHWVKQRPGQGLEWIGYINPSTGYTEYNQKFKDKATLTADKSSSTAYMQLSSLTFEDSAVYYCARGGGVFDYWGQGTTLTVSS
VL: QIVLTQSPAIMSASPGEKVTITCSASSSISYMHWFQQKPGTSPKLWIYTTSNLASGVPARFSGSGSGTSYSLTISRMEAEDAATYYCHQRSTYPLTFGSGTKLELK
Q: How did the Percent 51Cr release after ADCC, effector:target ratio 30:1 [3] turn out when B3 was run?
A: 4%

Q: And the Percent 51Cr release after ADCC, effector:target ratio 100:1 [3]?
A: < 1%
